# Residue numbers refer to the chain shown, from its start.
# B1: SCT-Fa002 (antibody, V domains shown)
# VH: EFQLQQSGPELVKPGASVKISCKASGYSFTDYNMNWVKQSNGKSLEWIGVNNPKYGTTTYNQKFKGKATLTVDQSSSTAYMQLNSLTSEDSAVYYCARRGYYYGSSYGYFDVWGTGTTVTVSS
# VL: DILMTQSPSSMSVSLGDRVSIICHASQDIRSNIGWLQQKPGKSLKGLIYHGTNLEDGVPSRFSGSGSGADYSLTISSLESEDFADYYCVQYVQFPRTFGGGTKLEIK
# notes: murine IgG
# B2: SCT-Fa023 (antibody, V domains shown)
# VH: EVQLQQSGAELVKPGASVKLSCTASDFNIKDYYLHWVKQRTEQGLEWIGRIDPDDGETKYGPKFQGKATITADTSSNTAFLQLSSLTSEDTAVYFCSRSNPYYFDYWGQGTTLTVSS
# VL: DIQMNQSPSSLSASLGDTITITCHVSQNINVWLSWYQQKPGNIPKLLIYKASNLHTGVTSRFSGSGAGTGFTLTISSLQPEDIATYYCQQGQNYPYTFGGGTKLEIK
# notes: murine IgG
# B3: SCT-Fa034 (antibody, V domains shown)
# VH: B2 VH with A24D, S25F, D26G, L34M, D54E, G61V, Q82H, S84T, F95Y, S97A
# VL: B2 VL with I19V, V25A, N28T, T59P, A67S
# notes: murine IgG
# B4: SCT-Fa026 (antibody, V domains shown)
# VH: EVQLQQSGAELVKPGASVKLSCTASGFNIKDFYMHWVHQRTEKGLEWIGRIDPEDGKTKYAPKFQGKATITADTSSNTAYLQLSSLTSEDTAVYYCARSNPYFFDYWGQGTTLTVSS
# VL: B2 VL with V25A, N28T, T59P, A67S, T74N, Q89H, N93S
# notes: murine IgG
# B5: SCT-Fa027 (antibody, V domains shown)
# VH: B2 VH with D26G, L34I, E42D, D55N, G61A, F80Y, S84G, F95Y, S97A, N100S
# VL: B2 VL with V25A, T59P, A67S, G68V, Y94F, K107I
# notes: murine IgG
# B6: SCT-Fa028 (antibody, V domains shown)
# VH: B4 VH with F32Y, H38K, E42D, K43H, E54D, D55N, K57E, S84G, N100S, F103Y
# VL: B2 VL with V25A, T59P, A67S, G68V, Y94F
# notes: murine IgG
# B7: SCT-Fa035 (antibody, V domains shown)
# VH: B2 VH with A24D, S25F, D26G, L34M, D54E, G61V, Q82H, S84T, F95Y, S97A
# VL: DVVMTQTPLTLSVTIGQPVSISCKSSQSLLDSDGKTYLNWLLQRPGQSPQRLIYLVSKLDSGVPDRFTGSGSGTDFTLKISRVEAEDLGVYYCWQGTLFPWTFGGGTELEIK
# notes: murine IgG
# B8: SCT-Fa043 (antibody, V domains shown)
# VH: EVQLQQSGAELVRPGASVKLSCTASGFNIKDYYMHWVKQRTEQGLEWIGRIDPDNDEIKYAPKFQGKATLTADTSSNTASLQLSGLTSEDTAVYYCARSSPYYFDYWGQGTTLTVSS
# VL: B2 VL with V25A, T59P, A67S, G68V, Y94I, K103Q
# notes: murine IgG
# B9: SCT-Fa031 (antibody, V domains shown)
# VH: B2 VH with D26G, L34M, D54E, G61V, Q82H, S84T, F95Y, S97A
# VL: B2 VL with I19V, V25A, N28T, T59P, A67S
# notes: murine IgG
# B10: SCT-Fa038 (antibody, V domains shown)
# VH: B4 VH with A24V, F32Y, H38K, K43Q, D55N, G56D, T58I, A79V
# VL: B2 VL with V25A, N28T, T59P, A67S, T74N, Q89H, N93S
# notes: murine IgG
# B11: SCT-Fa033 (antibody, V domains shown)
# VH: B4 VH with F32Y, H38R, K43Q, K57E, D73A, A79P, S85G, A97G, F103Y
# VL: B2 VL with T18R, T22N, V25A, T59P, A67S, G68V, G70V
# notes: murine IgG
# B12: SCT-Fa030 (antibody, V domains shown)
# VH: B4 VH with F32Y, H38K, K43Q, K57E, Y80S, T112P
# VL: B2 VL with V25A, N28T, N53K, L54M, T59P, A67S, T74N, Q89H, N93S
# notes: murine IgG
# B13: SCT-Fa005 (antibody, V domains shown)
# VH: EVHLQQSVAEVVRPGASVNLSCTVSGFNNKNTYMYWVKQRPEQGLEWIGIIDPANGNVKYAPKFQGKATITADTSSNTAYLQLSSLTSEDTAIYYCARGSSRLYYALDYWGQGTSVTVSS
# VL: DIVLTQSPASLAVSLGQRATISCRASESVDSYGNSFMHWYQQKPGQPPKLLIYRASNLESGIPARFSGSGSRTDFTLTIYPVEADDVATYYCQQSNEDPYTFGGGTKLEIK
# notes: murine IgG
# B14: SCT-Fa020 (antibody, V domains shown)
# VH: EVQLHQSGPELVKPGASVKMSCKASGYTFTDYNMHWVKQSHGKSLEWIGYINPNNGGIIYNQNFKGKATLTVNKSSTTAYMELRSLTSEDSAVYYCVGSLDYWGQGTTLTVSS
# VL: DIQMTQTTSSLSASLGDRVTISCRASQDINNYLNWYQQKPDETVKLLIYYTSRLHSGVPSRFSGSGSGTDYSLTISNLDQEDFATYFCQQGYMLPLTFDAGTKLELK
# notes: murine IgG
# B15: SCT-Fa022 (antibody, V domains shown)
# VH: EVQLQQPGAELVKPGASVKLSCKASGYTFTSYWIHWVKQRPGRGLEWIGRIDPNSGGTKYNEKFKSKATLTVDKPSSTAYMQLSSLTSEDSAVYYCTKDGNTPYYAMDYWGQGTSVTVSS
# VL: SIVMTQTPKFLLVSAGDRVTITCKASQSVSNAVAWYQQKPGQSPKLLIYYASNRYTGVPDRFTGSGYGTDFTFTISTVQAEDLAVYFCQQDYSSPLTFGAGTKLELK
# notes: murine IgG
# B16: SCT-Fa053 (antibody, V domains shown)
# VH: EVQLQQSGPVLVKPGASVKMSCKASGYSFTGYHMNWVKQSHGKSLEWIGIINPYNSATTYNQKFKGKATLTVDKSSSTAYMELNSLTSEDSVVYYCVRGAYGNPLDYWGQGTTLTVSS
# VL: DIKMTQSPSSMYASLGERVTITCKASQDINSYLSWFQQKPGKSPKTLIYRANRLVDGVPSRFSGSGSGQDYSLTISSLEYEDMGIYYCLQYDEYPYTFGGGTKLEIK
# notes: murine IgG
# B17: SCT-Fa052 (antibody, V domains shown)
# VH: B16 VH with T58S
# VL: B16 VL with A51T
# notes: murine IgG
# B18: SCT-Fa059 (antibody, V domains shown)
# VH: B16 VH with K23Q, A57G, T58I, K67R, S77D, E82D
# VL: B16 VL with K3R, M11I, K45E, A51T
# notes: murine IgG
# B19: SCT-Fa061 (antibody, V domains shown)
# VH: B16 VH with K13R, G42V, K63N
# VL: B16 VL with Q38L, R61G
# notes: murine IgG
# B20: SCT-Fa054 (antibody, V domains shown)
# VH: B16 VH with L83V, V92L
# VL: B16 VL with V55L
# notes: murine IgG
# B21: SCT-Fa047 (antibody, V domains shown)
# VH: EVQLQQSGPELVKPGASVKISCKASGYTFTDYYMNWVKQSHGKSLEWIGDINLNNGGTVYNQKFRGKATLTVDKSSSTAYMELRSLTSEDSAVYYCEGLGGYWGQGTTLTVSS
# VL: DVLMTQTPLSLPVSLGDQVSISCRSSQSIVHSNGNTYLEWYLQKPGQSPNLLIYKVANRLSGVPDRFSGSGSGTDFTLKISRVEAEDLGVYYCFQGSHVPFTFGSGTKLEIK
# notes: murine IgG
# B22: SCT-Fa048 (antibody, V domains shown)
# VH: B21 VH with F29L, K43E, L53P, G57D, T58I, V59N, R65K, V72A
# VL: B21 VL with V19A, S28T, K44T, N50K, A57S, L60I
# notes: murine IgG
# B23: SCT-Fa049 (antibody, V domains shown)
# VH: B21 VH with A16S, F29L, K43E, L53P, G57D, T58I, V59N, R65K, V72A
# VL: B21 VL with V19A, S28T, K44T, N50K, A57S, L60I
# notes: murine IgG
# B24: SCT-Fa195 (antibody, V domains shown)
# VH: QVQLRQSGAELVRPGTSVKLSCKASGYTLTDYYINWVKQRPGQGLEWIARIYPGNGNTYYNEKFKGKATLTAEKSSSTVNMQVSSLTSEDSAVYFCARGGSSDRIYYYAMDYWGQGTSVTVSS
# VL: DIQVTQSSPFLSVSLGGRVIISCKASDHINNWLAWYQQKPGNAPRLLISGAINLETGVPSRFSGSGSGKDYTLSISSLQTEDVATYYCQQYWNTPYTFGGGTKLEIK
# notes: murine IgG
# B25: SCT-Fa003 (antibody, V domains shown)
# VH: EGKLEESGGGLVQPGGSMKLSCAASGFTFSDAWMDWVRQSPKKGLEWVAEIRNKANKHSKHYAESVKGRFTISRDDSKSSVYLQMNSLRAEDTGIYYCSYDYIFAYWGQGTLVTVSA
# VL: DVVMTQTPLSLPVSLGDQASISCRSSQSLVHSNGNTYLHWYLQKPGQSPKLLIYKVSNRFSGVPDRFSGSGSGTDFTLKISRVEAEDLGVYFCSQSTHVPWTFGGGTKLEIK
# notes: murine IgG
# B26: SCT-Fa046 (antibody, V domains shown)
# VH: EVQLQQSGPELVKPGASVKISCKASGYTFTDYNMHWVKQSHGKSLAWIGYIYPYNGGTGYNQKFKNKATLTVDDSSSTAYMDLRSLTSDDSAVYYCAREDYGSREWFAYWGQGTLVTVSA
# VL: B25 VL with H39Y, W101L, G105A, I111L
# notes: murine IgG
# B27: SCT-Fa193 (antibody, V domains shown)
# VH: QVQLRQSGAELARPGASVKLSCKASGYTFTSYGITWVKQRTGQGLEWIGEIYPRSGNIYYNEKFKGKVTLTADKSSSTAYMELRSLTSEDSAVYFCARSTAVVAGGFDYWGQGTTLTVSS
# VL: DVVMTQSPSSLTVTTGERVTVNCKSSQSLLNSRIQKNSLTWYQQKPGQPPKLLIYWASTRESGVPDRFTGSGSGTDFTLTISSVQAEDLAIYYCQNDYNYPWTFGGGTKLEIK
# notes: murine IgG
# B28: SCT-Fa192 (antibody, V domains shown)
# VH: B27 VH with S31N
# VL: B27 VL with V2I, R18K, Y55F, G72E
# notes: murine IgG
# B29: SCT-Fa050 (antibody, V domains shown)
# VH: EVQLQQSGPMLVKPGASVKMSCKASGNTFTAFYMSWVKQSHGKSLEWIGVVNPYNGGAGYNQKFKGKATLTVDKSSSTAYMELNGLTSEDSAVYYCLLWEFAHWGQGTLVTVSA
# VL: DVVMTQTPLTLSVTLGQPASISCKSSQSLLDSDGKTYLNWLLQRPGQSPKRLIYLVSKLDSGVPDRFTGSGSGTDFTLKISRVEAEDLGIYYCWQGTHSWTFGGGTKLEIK
# notes: murine IgG
# Target: T1, Human TIM-3 Human Fc tagged protein (human, fluorescently labeled with HiLyte Fluor 555 (sites not given))
# T1 construct: Bought construct; also called TIM-3 protein tagged with human Fc; ACROBiosystems catalog no: TM3-H5258
# Test: capture slide probed with labeled TIM-3-Fc;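 note: IgG from single CD138-enriched plasma cells, isolated from lymphocytes, immobilized on a derivatized glass slide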
# Text: Antibody secreted from each plasma cell was captured on a derivatized microscope slide.
row,Binder,binding result
1,B1,binds
2,B2,binds
3,B3,binds
4,B4,binds
5,B5,binds
6,B6,binds
7,B7,binds
8,B8,binds
9,B9,binds
10,B10,binds
11,B11,binds
12,B12,binds
13,B13,binds
14,B14,binds
15,B15,binds
16,B16,binds
17,B17,binds
18,B18,binds
19,B19,binds
20,B20,binds
21,B21,binds
22,B22,binds
23,B23,binds
24,B24,binds
25,B25,binds
26,B26,binds
27,B27,binds
28,B28,binds
29,B29,binds

# From US20230279105A1 (SINGLE CELL TECHNOLOGY, published 2023)
